# Measured values reported in patent publication US20210292393A1 (published 2021).
# Numbering of substitutions follows the chain as printed.
# B1: antibody 396 (antibody, V domains shown)
# VH: QVQLQQWGAGLLKPSETLSLTCAVYGGSFSGYYWSWIRQPPGKGLEWIGEIIHSGSTNYNPSLKSRVTISVDTSKNQFSLKLSSVTAADTAVYYSARRTGLLWFREGSYYFDYWGQGTLVTVSS
# VL: DIQMTQSPSSLSASVGDRVTITCRASQGIRNDLGWYQQKPGKAPKRLIYAASSLQSGVPSRFSGSGSGTEFTLTISSLQPEDFATYYCLQHNSYPLTFGGGTKVEIK
# B2: antibody 395 (antibody, V domains shown)
# VH: QVQLVQSGSELKKPGASVKLSCQASGYTFSNHAMNWVRQAPGQGLEWMGWINTNTGNPTYAQGFTGRFVFSLDTSVGTAYLHISSLKAEDTAFYYCARASARPGVATNLDFWGQGTLVVVSS
# VL: DIQMTQSPSSLSASVGDRVTITCRTSQNIDNYLNWYQQKPGKAPNLLIYAASRLHSGVPSRFSGSGSGTDFTLIISSLQPEDLATYYCQQSYSNPLTFGPGTKVDIR
# B3: antibody 385 (antibody, V domains shown)
# VH: QVQLVESGGGVVQPGRSLRLSCAASGFTFSSYAIHWVRQAPGKGLEWVAVISYDGSNKYYADSVKGRFTISRDNSKNTLYLQMNSLRAEDTAVYYCARPRSGSYWGAFDIWGQGTMVTVSS
# VL: QSVLTQPPSVSGAPGQRVTISCTGSSSNIGARYDVHWYQQLPGTAPKLLIYGNSNRPSGVPDRFSGSKSGTSASLAITGLQAEDEADYYCQSYDSSLRGVFGGGTKLTVL
# B4: antibody 392 (antibody, V domains shown)
# VH: QVQLQESGPGLVKPSGTLSLTCAVSGGSISSSNWWSWVRQPPGKGLEWIGEIYHSGSTNYNPSLKSRVTISVDKSKNQFSLKLSSVTAADTAVYYCARGWRATLYGMDVWGQGTTVTVSS
# VL: QSALTQPASVSGSPGQSITISCTGTSSDVGSYNLVSWYQQHPGKAPKLMIYEVSKRPSGVSNRFSGSKSGNTASLTISGLQAEDEADYYCCSYAGSSTWVFGGGTKLTVL
# B5: antibody 404 (antibody, V domains shown)
# VH: QVQLVESGGGVVQPGRSLRLSCAASGFTFSSYGMHWVRQAPGKGLEWVAVIWYDGSNKYYADSVKGRFTISRDNSKNTLYLQMNSLRAEDTAVYYCARLAVDISFDGSDGMDVWGQGTTVTVSS
# VL: SYELTQPPSVSVSPGQTARITCSGDALPKKYAYWYQQKSGQAPVLVIYEDSKRPSGIPERFSGSSSGTMATLTISGAQVEDEADYYCYSTDSSGKGVFGTGTKVTVL
# B6: antibody 363 (antibody, V domains shown)
# VH: EVQLLESGGGLVQPGGSLRLSCAASGFTFSTYAMSWVRQAPGKGLEWVSAISGSGGSTYYADSVKGRFTISRDNSKNTLYLQMNSLRAEDTAVYYCASGYSPDYWGQGTLVTVSS
# VL: not shown
# B7: antibody 345 (antibody, V domains shown)
# VH: QVQLQESGPGLVKPSQTLSLTCTVSGGSISSGDYYWSWIRQPPGKGLEWIGYIYYSGSTYYNPSLKSRVTISVDTSKNQFSLKLSSVTAADTAVYYCARVGMVDNWNFEGNWFDPWGQGTLVTVSS
# VL: QSALTQPRSVSGSPGQSVTISCTGTSSDVGGYNYVSWYQQHPGKAPKLMIYDVSKRPSGVPDRFSGSKSGNTASLTISGLQAEDEADYYCCSYAGSVVFGGGTKLTVL
# B8: antibody 348 (antibody, V domains shown)
# VH: QVQLVQSGSELKKPGASVKVSCKASGYTFTSYAMNWVRQAPGQGLEWMGWINTNTGNPTYAQGFTGRFVFSLDTSVSTAYLQISSLKAEDTAVYYCARDHELPNTSSWFGHFEYWGQGTLVTVSS
# VL: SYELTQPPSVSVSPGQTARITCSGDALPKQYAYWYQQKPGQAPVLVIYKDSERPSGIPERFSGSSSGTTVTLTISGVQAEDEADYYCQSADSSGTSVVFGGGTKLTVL
# B9: antibody 340 (antibody, V domains shown)
# VH: QVQLVQSGAEVKKPGASVKVSCKASGYTFTSYDINWVRQATGQGLEWMGWMNPNSGNTGYAQKFQGRVTMTRNTSISTAYMELSSLRSEDTAVYYCARGRYCTGGVCWGDWYFDLWGRGTLVTVSS
# VL: QSVLTQPPSVSGAPGQRVTISCTGSSSNIGAGYDVHWYQQLPGTAPKFLIYGNSNRPSGVPDRFSGSKSGTSASLAITGLQAEDEADYYCQSYDSSLSGPVFGGGTKLTVL
# B10: antibody 344 (antibody, V domains shown)
# VH: QVQLVESGGGVVQPGRSLRLSCAASGFTFSSYAMHWVRQAPGKGLEWMAVISYDGSNKYYADSVKGRFTISRDNSKNTLYLQMNSLRAEDTAVYFCAKGYSGSYYEPFDYWGQGTLVTVSS
# VL: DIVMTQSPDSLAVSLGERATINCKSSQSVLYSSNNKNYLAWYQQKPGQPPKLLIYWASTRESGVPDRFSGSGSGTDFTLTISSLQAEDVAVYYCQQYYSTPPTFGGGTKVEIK
# B11: antibody 543 (antibody, V domains shown)
# VH: EVQLVESGGGLVQPGRSLRLSCAASGFTFHDYAMHWVRQAPGKGLEWVSGISWNSGSIGYADSVKGRFTISRDNAKNSLYLQMNSLRAEDTALYYCAKDTFGSSSWYRGDSYYYYGMDVWGQGTTVTVSS
# VL: QSALTQPASVSGSPGQSITISCTGTSSDVGGYNYVSWYQQHPGKAPKLMIYEVSNRPSGVSNRFSGSKSGNTASLTISGLQAEDEADYYCSSYTSSSTQRYVVFGGGTKLTVL
# B12: antibody 523 (antibody, V domains shown)
# VH: EVQLVESGGVSVQPGGSLRLSCAASGFSFNTYDMHWVRQGTGKGLEWVSGIGTAGDTYYSDSVKGRCTISRDNAKNSLHLLVKSVRAADTAVYYCARGVGGIIDYWGQGTLVTVSS
# VL: NFVLSQPHSVSESPGKTVTISCTGNSGSIATKYVQWFQQRPGSAPTTVIYEDNQRPSGVPDRFSGSSDSSSNSASLTISGLKTEDEAHYYCQSYHNRRWVFGGGTKLTVL
# B13: antibody 545 (antibody, V domains shown)
# VH: B8 VH with S85V, A92G, T105S
# VL: SYELTQPPSVSVSPGQTARITCSGDALPKQYAYWYQQKAGQAPVLVIYKDSERRSGIPERFSGSSSGTTVTLTISGVQAEDEADYYCQSADSSGTSVVFGGGTKLTVL
# B14: antibody 533 (antibody, V domains shown)
# VH: GVQLVESGGVVVQPGGSLRLSCAASGFSFDDYTMHWVRQAPGKGLEWVSLVSWDGGTTYYTDSVKGRFTISRDNSKNSLYLQMNSLRTEDTALYFCAKDSGRIVPAATFDYWGQGTLVTVSS
# VL: DIQMTQSSSSLSASVGDRVTITCRASQDISNYLAWFQQKPGKAPKSLIYAASSLQSGVPSKFSGSGSGTDFTLTISSLQPEDFATYYCQQYYTYPLTFGGGTKVEIK
# B15: antibody 527 (antibody, V domains shown)
# VH: QLQLQESGPGLVKPSETLSLTCTVSGGSISSSSYYWGWIRQPPGKGLEWIGSIYYSGSTYYNPSLKSRVTISVDTSKNQFSLKLSSVTAADTAMYYCASHVVVIASSYWCFDLWGRGTLVTVSS
# VL: B4 VL with S31G, L34Y, E52D, K55N, C91S, A94T, G95S, S96I
# B16: antibody 509 (antibody, V domains shown)
# VH: QVQLVESGGGVVQPGRSLRLSCAASGFNLSSYAMHWVRQASGKGLEWVSLISYDGSIKYYTDSVKGRFTVSGDNSKNTLFLQMNSLRADDSALYYCVRGGVSGPNSFDLWGQGTTVTVSS
# VL: DVVMTQSPLSLPVTLGQPASISCRSSQSLVYSDGNTYVNWFQQRPGQSPRRLIYKVSIRASGVPDRFSGSGSGTDFALKISRVEAEDVGVYYCMQGTHWPVTFGQGTKVEIK
# B17: antibody 547 (antibody, V domains shown)
# VH: QVHLVESGGGVVQPGRSLRLSCAASGFALSSYAMHWVRQPPGKGLEWVALISYDGSVKKYADSVKGRITVSGDNSRNTLHLQINSLRADDTAVYYCVRGGVSGPNSFDLWGHGTMVTVSS
# VL: B16 VL with M4L, V30E, D33V, I58N, A60D, A77T, K79Q, E86D, V90I
# B18: antibody 517 (antibody, V domains shown)
# VH: B16 VH with S31N, L109M
# VL: B16 VL with K55Q
# B19: antibody 522 (antibody, V domains shown)
# VH: EVQLVESGGGLVQPGGSLRLSCAASGFNFSSYSMNWVRQAPGKGLEWVSYISSSSSTIYYADSVKGRFTISRDNAKNSLYLQMNSLRDEDTAVYYCARGPEWDIVVVQAENWFDPWGQGTLVTVSS
# VL: SYELTQPPSVSVSPGQTARITCSGDALPKQYVYWYQQKPGQAPVLVIYKDSERPSGIPERFSGSSSGTTVTLTISGVQAEDEADYYCQSADSSGTYRGVFGGGTKLTVL
# B20: antibody 548 (antibody, V domains shown)
# VH: B3 VH with I34M, S85N, R98K, P99S, R100G, W105L, G106S
# VL: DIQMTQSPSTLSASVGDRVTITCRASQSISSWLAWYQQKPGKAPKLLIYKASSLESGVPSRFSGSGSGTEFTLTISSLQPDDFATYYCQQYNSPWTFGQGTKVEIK
# B21: antibody 537 (antibody, V domains shown)
# VH: QVQLQQWGAGLLKPSETLSLTCAVYGGSFSGYYWSWIRQPPGKGLEWIGEINHSGSTNYNPSLKSRVTISVDTSKNQFSLKLSSVTAADTAVYYCARGLYYDMGGGFDYWGQGTLVTVSS
# VL: not shown
# B22: antibody 546 (antibody, V domains shown)
# VH: QVQLVESGGGVVQPGRSLRLSCAASGFTFSSYGMHWVRQAPGKGLEWVAVIWYDGSNKYYADSVKGRFTISRDNSKNTLYLQMNSLRAEDTAVYYCARNCGGDCVAGDGFDYWGQGTLVTVSS
# VL: DIQMTQSPSSLSASVGDRVTITCRASQSISSYLNWYQQKPGKAPNLLIYAASSLQSGVPSRFSGSGSGTDFTLTISSLQPEDFATYYCQQSYSALTWTFGQGTKVEIK
# B23: antibody 536 (antibody, V domains shown)
# VH: QVQLVESGGGVVQPGRSLRLSCAASGFTFSSYVMHWVRQAPGKGLEWVALISYDGSNKYYADSVKGRFTISRDNSKNTLYLQMNSLRAEDTAVYYCARGGHIRVGRYFDWLISYFDYWGQGTLVTVSS
# VL: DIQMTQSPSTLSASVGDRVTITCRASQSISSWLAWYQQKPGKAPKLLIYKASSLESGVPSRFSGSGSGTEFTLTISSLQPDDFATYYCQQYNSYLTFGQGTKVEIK
# B24: antibody 504 (antibody, V domains shown)
# VH: QVQLVESGGGVVQPGRSLRLSCAASGFTFSSYGMHWVRQAPGKGLEWVAVISYDGSNKYYADSVKGRFTISRDNSKNTLYLQMNSLRAEDTAVYYCAKGGGGGYCSGGSCYSHYFDYWGQGTLVTVSS
# VL: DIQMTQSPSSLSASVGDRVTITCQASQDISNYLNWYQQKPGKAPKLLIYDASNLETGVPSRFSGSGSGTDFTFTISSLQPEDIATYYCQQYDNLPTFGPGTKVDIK
# Biological target: SARS-CoV spike protein (full length spike, trimeric, conjugated to beads) (SARS-CoV, UniProt P59594 14-1190)
row,Binder,median fluorescence fold over isotype control [fold over isotype control]
1,B1,1.36
2,B2,1.16
3,B3,59.6
4,B4,1.08
5,B5,1.04

# Biological target: SARS-CoV-2 full length spike protein (wild type) (SARS-CoV-2, UniProt P0DTC2 14-1208)
row,Binder,median fluorescence intensity fold over isotype [fold over isotype control]
1,B6,1030
2,B7,562
3,B8,869
4,B9,547
5,B10,404

# Biological target: SARS-CoV-2 full length spike protein (wild-type), conjugated to optically encoded beads (SARS-CoV-2, UniProt P0DTC2 14-1208)
row,Binder,median fluorescence fold over isotype [fold over isotype]
1,B11,802
2,B12,30.8
3,B13,939
4,B14,23.4
5,B15,148
6,B16,496
7,B17,606
8,B18,434
9,B19,433
10,B20,642
11,B21,787
12,B22,1160
13,B23,643
14,B24,709
